Assay results taken from US20190375823A1 (Zymeworks, published 2019).

How the values were obtained:
[1] = biological target: T1, CD19 on Raji B cells (UniProt P15391 20-556, limits assumed); assay: FACS on Raji cells (CD19)
T1 construct: whole, on cells; also called Raji CD19 B cells
T1 sequence (looked up): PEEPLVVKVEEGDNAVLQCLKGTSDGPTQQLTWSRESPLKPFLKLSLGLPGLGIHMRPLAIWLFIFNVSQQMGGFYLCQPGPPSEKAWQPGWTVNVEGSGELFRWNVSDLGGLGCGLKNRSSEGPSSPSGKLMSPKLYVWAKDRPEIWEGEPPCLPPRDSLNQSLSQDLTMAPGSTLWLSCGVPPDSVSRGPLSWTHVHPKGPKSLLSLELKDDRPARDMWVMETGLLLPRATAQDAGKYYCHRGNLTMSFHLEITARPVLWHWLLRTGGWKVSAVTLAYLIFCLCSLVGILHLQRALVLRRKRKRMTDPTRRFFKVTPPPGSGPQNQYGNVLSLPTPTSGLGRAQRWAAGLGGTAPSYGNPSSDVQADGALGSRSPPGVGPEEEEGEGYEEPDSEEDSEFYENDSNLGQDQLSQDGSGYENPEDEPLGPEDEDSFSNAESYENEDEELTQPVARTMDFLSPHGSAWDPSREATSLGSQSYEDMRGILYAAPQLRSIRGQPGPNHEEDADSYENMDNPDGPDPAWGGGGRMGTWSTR

[2] = biological target: the molecule itself; assay: native gel after co-expression (1:1 DNA level)
[3] = biological target: T2, Human FcRn (hFcRn) (human, UniProt P55899 24-297; P61769 21-119, limits assumed); assay: SPR, hFcRn immobilized, v1378 flowed over at pH 6.0
T2 construct: also called neonatal Fc receptor
T2 sequence (P55899 24-297 limits assumed, chain 1 of 2): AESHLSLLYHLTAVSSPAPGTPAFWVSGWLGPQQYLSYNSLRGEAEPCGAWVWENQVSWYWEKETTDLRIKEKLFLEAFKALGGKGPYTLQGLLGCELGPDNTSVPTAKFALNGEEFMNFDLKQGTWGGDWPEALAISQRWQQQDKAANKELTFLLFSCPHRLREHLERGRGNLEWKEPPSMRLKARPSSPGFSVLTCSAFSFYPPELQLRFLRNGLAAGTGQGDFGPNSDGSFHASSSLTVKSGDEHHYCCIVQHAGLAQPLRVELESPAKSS
T2 sequence (P61769 21-119 limits assumed, chain 2 of 2): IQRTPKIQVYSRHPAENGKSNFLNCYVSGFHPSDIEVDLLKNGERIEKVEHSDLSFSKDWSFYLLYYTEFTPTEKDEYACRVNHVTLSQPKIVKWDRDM
Excerpt: Methods are identical to Example 2, except the directionality of the assay was reversed.

B1: V1093 (bispecific antibody)
anti-CD19 scFv fused to the N terminus of transporter polypeptide 1 (albumin 1-337): DIQLTQSPASLAVSLGQRATISCKASQSVDYDGDSYLNWYQQIPGQPPKLLIYDASNLVSGIPPRFSGSGSGTDFTLNIHPVEKVDAATYHCQQSTEDPWTFGGGTKLEIKGGGGSGGGGSGGGGSQVQLQQSGAELVRPGSSVKISCKASGYAFSSYWMNWVKQRPGQGLEWIGQIWPGDGDTNYNGKFKGKATLTADESSSTAYMQLSSLASEDSAVYFCARRETTTVGRYYYAMDYWGQGTTVTVSSGGSDAHKSEVAHRFKDLGEENFKALVLIAFAQYLQQCPFEDHVKLVNEVTEFAKTCVADESAENCDKSLHTLFGDKLCTVATLRETYGEMADCCAKQEPERNECFLQHKDDNPNLPRLVRPEVDVMCTAFHDNEETFLKKYLYEIARRHPYFYAPELLFFAKRYKAAFTECCQAADKAACLLPKLDELRDEGKASSAKQRLKCASLQKFGERAFKAWAVARLSQRFPKAEFAEVSKLVTDLTKVHTECCHGDLLECADDRADLAKYICENQDSISSKLKECCEKPLLEKSHCIAEVENDEMPADLPSLAADFVESKDVCKNYAEAKDVFLGMFLYEYARA
transporter polypeptide 2 (albumin 342-585) with anti-CD3 scFv at the C terminus: not shown
Kd [1]: 49 nM

B2: Albumin based Transporter polypeptide 1-Ver 1 (ABH1 fragment, albumin 1:293) (other)
chain: DAHKSEVAHRFKDLGEENFKALVLIAFAQYLQQCPFEDHVKLVNEVTEFAKTCVADESAENCDKSLHTLFGDKLCTVATLRETYGEMADCCAKQEPERNECFLQHKDDNPNLPRLVRPEVDVMCTAFHDNEETFLKKYLYEIARRHPYFYAPELLFFAKRYKAAFTECCQAADKAACLLPKLDELRDEGKASSAKQRLKCASLQKFGERAFKAWAVARLSQRFPKAEFAEVSKLVTDLTKVHTECCHGDLLECADDRADLAKYICENQDSISSKLKECCEKPLLEKSHCIAEV
notes: also called ABH1 transporter polypeptide A; ABH1 fragment 1
binding result [2]: no binding

B3: v1378: AlbuCORE_1 (ABH2) with anti-HER3 at the N terminus of fragment 1 and anti-HER2 (4D5) at the N terminus of fragment 2 (bispecific antibody)
chain 1: QVQLQESGGGLVKPGGSLRLSCAASGFTFSSYWMSWVRQAPGKGLEWVANINRDGSASYYVDSVKGRFTISRDDAKNSLYLQMNSLRAEDTAVYYCARDRGVGYFDLWGRGTLVTVSSASTGGGGSGGGGSGGGGSQSALTQPASVSGSPGQSITISCTGTSSDVGGYNFVSWYQQHPGKAPKLMIYDVSDRPSGVSDRFSGSKSGNTASLIISGLQADDEADYYCSSYGSSSTHVIFGGGTKVTVLGGGSDAHKSEVAHRFKDLGEENFKALVLIAFAQYLQQCPFEDHVKLVNEVTEFAKTCVADESAENCDKSLHTLFGDKLCTVATLRETYGEMADCCAKQEPERNECFLQHKDDNPNLPRLVRPEVDVMCTAFHDNEETFLKKYLYEIARRHPYFYAPELLFFAKRYKAAFTECCQAADKAACLLPKLDELRDEGKASSAKQRLKCASLQKFGERAFKAWAVARLSQRFPKAEFAEVSKLVTDLTKVHTECCHGDLLECADDRADLAKYICENQDSISSKLKECCEKPLLEKSHCIAEVENDEMPADLPSLAADFVESKDVCKNYAEAKDVFLGMFLYEYARA
chain 2: not shown
notes: also called variant 1378; anti-Her3xHer2 ABH2
Kd [3]: 970 nM
